Experiments:
Homer1 EVH1 domain = Homer1 EVH1 domain (Homo sapiens, UniProt Q86YM7); details: read-out: K D ^Homer1; pH 7.6; SD
[1] = system: ENAH EVH1 domain tetramers; experiment: Peptide SPOT array, ENAH EVH1 domain tetramers; format: binding, human; details: SPOT intensities, tetrameric EVH1, 0.5 μM monomer
Procedure: Protein expression was carried out as above.
ABI3 substitution and overlapping motif SPOT arrays were synthesized at the MIT Biopolymer Facility using an Intavis SPOT synthesis peptide arrayer system. At the N‐terminus, the 20‐mer peptides were capped with a Gly‐Ser linker and acetylated. The peptides were linked to the cellulose membrane by a C‐terminal PEG spacer. For the overlapping motif array, because many of the peptide sequences contain additional Ena/VASP and Homer motifs, each peptide was also synthesized as a control where the internal proline tract was mutated to poly‐glycine. The protocol for blocking and probing the membrane was adapted from Frank and Dübel ([2006]). […] The following day, the array was washed in T‐TBS (TBS + 0.05% Tween‐20) and then incubated with the protein sample in MBS (+1 μM DTT) for 3 h at room temperature. All array experiments were carried out with streptavidin‐Cy3 (Thermo Fisher) pre‐tetramerized EVH1 at a final monomer concentration of 0.5 μM. The membrane was washed three times in T‐TBS prior to scanning on a GE Amersham Imager 680. SPOT intensities were calculated using the ImageJ analysis software (Abràmoff et al., [2004]). No background correction was performed. For the overlapping peptides, the final intensity was calculated as the difference between the intensity of the wild‐type and motif knockout control. […]

[2] = biological target: ddEVH1 (D. discoideum EVH1 domain of ddVASP) (Dictyostelium discoideum, UniProt Q5TJ65)
ddEVH1 (D. discoideum EVH1 domain of ddVASP), sequence (Q5TJ65 with tags, fused parts or gaps): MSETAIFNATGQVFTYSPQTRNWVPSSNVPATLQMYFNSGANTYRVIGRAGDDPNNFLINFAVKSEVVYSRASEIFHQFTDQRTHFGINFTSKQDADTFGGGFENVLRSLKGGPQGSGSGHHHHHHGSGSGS

Homer1 EVH1 domain, sequence (Q86YM7 with tags, fused parts or gaps): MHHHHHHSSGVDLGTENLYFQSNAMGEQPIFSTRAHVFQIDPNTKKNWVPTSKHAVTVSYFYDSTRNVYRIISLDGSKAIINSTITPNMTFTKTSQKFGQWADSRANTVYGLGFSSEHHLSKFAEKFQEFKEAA

DIESDFPPPPEDFPAADELP [FAT1]
Kd (Homer1 EVH1 domain): 98 ± 7 µM | Binding to ENAH relative to Homer1 EVH1 in the SPOT array assay [1]: two‐ to three‐fold better | ddEVH1 binding, result in words [2]: bound poorly

— publication PMC11237882 (Protein Science : A Publication of the Protein Society, 2024)
